Patent US20250327097A1, “ORGANISMS PRODUCING LESS CROTONIC ACID” (Global Bioenergies, priority 2021, published 2025)
Where a chain is given by its changes, count along the chain named. In names and notes the source's numbering stands.

B1: V272R-I283T-P284D-i284aP-N287P-S322T-N388M-E421V-C430N-L432F-L434W-S436N-H461T-G462R-i462aA-A463T (protein)
chain: MFLKSLREQINLLKRQGDLRIINRPVDSYLEAAAIIRRSTETKAPVPLMTNIKGYPGCSIVGGLAALSSNPEYPLSRVAMSLGLSTTASAQSIVQYLIDGLKKTPYLPVEIDSNSAPCKQNILRGEDASLAHFPIPQVHQHDGNRYVNTWGVFIVESPDGQWCNWSIQRVQYLNDRQMIALVFPSQHISDIWEEWVKIGKPMPYALVQGCEPIVPYIAGLPLLERNVNEAEYIGALYGKGIEVVKCETHDLRVPASSEVVIEGYFAITREGREGPFGEFAGYTDNEPSLQPILSITAISWQDDPIWPVVAEGKPVDEYHTCTGIGDAAAIQNVLLTANLPVSFVWVPLYSACHLMIVSINRHWRQTHPDLTSEQLTKKVGDVIHQTRMSIKLPKIVVLDDDVDPADTESLLWALATRIHPVRKRYFYESNIFPWLNCYSEEERHNRKGKRVIIDALLPENTRTISSFDYAYPDDIKQRVLMHWETDFSHD
B2: V272I-I283T-P284D-i284aP-N287P-S322T-N388M-E421V-C430N-L432F-L434W-S436N-C437F-H461T-G462R-i462aA-A463T (protein)
chain: B1 chain with R272I, C437F
B3: V272K-I283T-P284D-i284aP-N287P-S322T-N388M-E421V-C430N-L432F-L434W-S436N-C437F-H461T-G462R-i462aA-A463T (protein)
chain: B1 chain with R272K, C437F
B4: A33P-I283T-P284D-i284aP-N287P-S322T-N388M-E421V-C430N-L432F-L434W-S436N-C437F-H461T-G462R-i462aA-A463T (protein)
chain: B1 chain with A33P, R272V, C437F
B5: I283T-P284D-i284aP-N287P-S322T-H384S-N388M-E421V-C430N-L432F-L434W-S436N-C437F-H461T-G462R-i462aA-A463T (protein)
chain: B1 chain with R272V, H384S, C437F
B6: I283T-P284D-i284aP-N287P-S322T-N388M-I418V-E421V-C430N-L432F-L434W-S436N-C437F-H461T-G462R-i462aA-A463T (protein)
chain: B1 chain with R272V, I418V, C437F
B7: K43E-I283T-P284D-i284aP-N287P-S322T-N388M-E421V-C430P-L432F-L434W-S436N-C437F-H461T-G462R-i462aA-A463T (protein)
chain: B1 chain with K43E, R272V, N430P, C437F
B8: I283T-P284D-i284aP-N287P-S322T-N388M-E421V-C430R-L432F-L434W-S436N-C437F-H461T-G462R-i462aA-A463T (protein)
chain: B1 chain with R272V, N430R, C437F
B9: I283T-P284D-i284aP-N287P-S322T-N388M-E421V-C430N-L432F-L434W-S436N-C437F-Y438L-H461T-G462R-i462aA-A463T (protein)
chain: B1 chain with R272V, C437F, Y438L
B10: I283T-P284D-i284aP-N287P-S322T-N388M-E421V-C430N-L432F-L434W-S436Q-C437F-H461T-G462R-i462aA-A463T (protein)
chain: B1 chain with R272V, N436Q, C437F
B11: I283T-P284D-i284aP-N287P-S322T-N388M-E421V-C430N-L432F-L434W-S436N-C437F-E441V-H461T-G462R-i462aA-A463T (protein)
chain: B1 chain with R272V, C437F, E441V
B12: I283T-P284D-i284aP-N287P-S322T-N388M-E421V-C430R-L432F-L434W-S436N-C437F-Y438L-H461T-G462R-i462aA-A463T (protein)
chain: B1 chain with R272V, N430R, C437F, Y438L
B13: V272I-I283T-P284D-i284aP-N287P-S322T-N388M-E421V-C430R-L432F-L434W-S436N-C437F-H461T-G462R-i462aA-A463T (protein)
chain: B1 chain with R272I, N430R, C437F
B14: V272I-I283T-P284D-i284aP-N287P-S322T-N388M-E421V-C430R-L432F-L434W-S436N-C437F-Y438L-H461T-G462R-i462aA-A463T (protein)
chain: B1 chain with R272I, N430R, C437F, Y438L
B15: V272I-I283T-P284D-i284aP-N287P-S322T-N388M-E421V-C430N-L432F-L434W-S436N-C437F-Y438L-H461T-G462R-i462aA-A463T (protein)
chain: B1 chain with R272I, C437F, Y438L
B16: V272R-I283T-P284D-i284aP-N287P-S322T-N388M-I418V-E421V-C430N-L432F-L434W-S436N-G448E-H461T-G462R-i462aA-A463T (protein)
chain: B1 chain with I418V, G448E
B17: G17S-V272R-I283T-P284D-i284aP-N287P-S322T-N388M-E421K-C430N-L432F-L434W-S436N-G448E-H461T-G462R-i462aA-A463T (protein)
chain: B1 chain with G17S, V421K, G448E
B18: V272R-I283T-P284D-i284aP-N287P-S322T-N388M-E421V-E428T-C430N-L432F-L434W-S436N-G448E-H461T-G462R-i462aA-A463T (protein)
chain: B1 chain with E428T, G448E
B19: V272R-I283T-P284D-i284aP-N287P-S322T-N388M-E421V-C430N-L432F-L434W-S436N-E441H-G448E-H461T-G462R-i462aA-A463T (protein)
chain: B1 chain with E441H, G448E
B20: S39G-V272R-I283T-P284D-i284aP-N287P-S322T-N388M-E421V-F426L-E428T-C430N-L432F-L434W-S436N-G448E-H461T-G462R-i462aA-A463T (protein)
chain: B1 chain with S39G, F426L, E428T, G448E
B21: V272R-I283T-P284D-i284aP-N287P-S322T-N388M-E421V-E428T-C430N-L432F-L434W-S436N-K447I-G448E-H461T-G462R-i462aA-A463T (protein)
chain: B1 chain with E428T, K447I, G448E
B22: E224P-I283T-N285P-N287T-Q290E-S322T-N388M-S389H-K394R-C430A-i430aG-L432F-L434W-S436N-I453L-dG462 (protein)
chain: MFLKSLREQINLLKRQGDLRIINRPVDSYLEAAAIIRRSTETKAPVPLMTNIKGYPGCSIVGGLAALSSNPEYPLSRVAMSLGLSTTASAQSIVQYLIDGLKKTPYLPVEIDSNSAPCKQNILRGEDASLAHFPIPQVHQHDGNRYVNTWGVFIVESPDGQWCNWSIQRVQYLNDRQMIALVFPSQHISDIWEEWVKIGKPMPYALVQGCEPIVPYIAGLPLLPRNVNEAEYIGALYGKGIEVVKCETHDLRVPASSEVVIEGYFAITREGVEGPFGEFAGYTPPETSLEPILSITAISWQDDPIWPVVAEGKPVDEYHTCTGIGDAAAIQNVLLTANLPVSFVWVPLYSACHLMIVSINRHWRQTHPDLTSEQLTKKVGDVIHQTRMHIKLPRIVVLDDDVDPADTESLLWALATRIHPERKRYFYESAIFPWLNCYSEEERHNRKGKRVILDALLPENHGAISSFDYAYPDDIKQRVLMHWETDFSHD
B23: G380V-K391L-L432W-L434M (protein)
chain: MFLKSLREQINLLKRQGDLRIINRPVDSYLEAAAIIRRSTETKAPVPLMTNIKGYPGCSIVGGLAALSSNPEYPLSRVAMSLGLSTTASAQSIVQYLIDGLKKTPYLPVEIDSNSAPCKQNILRGEDASLAHFPIPQVHQHDGNRYVNTWGVFIVESPDGQWCNWSIQRVQYLNDRQMIALVFPSQHISDIWEEWVKIGKPMPYALVQGCEPIVPYIAGLPLLERNVNEAEYIGALYGKGIEVVKCETHDLRVPASSEVVIEGYFAITREGVEGPFGEFAGYIPNENSLQPILSITAISWQDDPIWPVVAEGKPVDEYHTCSGIGDAAAIQNVLLTANLPVSFVWVPLYSACHLMIVSINRHWRQTHPDLTSEQLTKKVVDVIHQTRNSILLPKIVVLDDDVDPADTESLLWALATRIHPERKRYFYESCIWPMLSCYSEEERHNRKGKRVIIDALLPENHGAISSFDYAYPDDIKQRVLMHWETDFSHD

Each molecule was assayed on 3-methylcrotonic acid.
Format: biochemical, Yersinia frederiksenii
Set-up: key: “+” representing a low increase in activity; “++++” representing a high increase in activity

Molecule | Activity relative to WT
B1 | ++++
B2 | ++++
B3 | ++++
B4 | ++++
B5 | ++++
B6 | ++++
B7 | ++++
B8 | ++++
B9 | ++++
B10 | ++++
B11 | ++++
B12 | ++++
B13 | ++++
B14 | ++++
B15 | ++++
B16 | ++++
B17 | ++++
B18 | ++++
B19 | ++++
B20 | ++++
B21 | ++++
B22 | ++++
B23 | +
